Data taken from US20120102593.

Target: histone H4 (rice, extracted from leaves)

B1: histone deacetylase OsHDT1 (protein)
chain: MEFWGLEVKPGQTVKCEPEDERFLHLSQAALGESKKGSDNAVMYVKTDDQKLVIGTLSADKFPQIQFDLVFDKEFELSHTSKTASVFFSGYKVSQPAEEDEMDFDSEEVEDEEEEEKIIPAPRANGKVEGKENEQKKQGKTDSSASKSKAAVNDDDDDDDSAEDDSQDEDLSPEDDDDDSSEDDSSEDDEDESDEEDTPKKPETGKRKVAEIVLKTPSSDKKAKIATPSGQKTGDKKGVHVATPHPAKQASKTPVNDKSKEKSPKSGGGSISCKSCSKTFNSEMALQSHSKAKHPAK
With B1 the “Western blotting of histone extracted from transgenic and wild-type parent and hybrid OsHDT1 plants, using commercial antibodies against histone modifications” value was “HDT1 was capable of deacetylating histone and as such is a histone deacetylase mainly acting at H4K16 site”.
